Tests used:
[1] = substrate: OC[C@H]1O[C@@](CO)(O[C@H]2O[C@H](CO)[C@@H](O)[C@H](O)[C@H]2O)[C@@H](O)[C@@H]1O; test: glucose release, glucose oxidase-peroxidase, Lineweaver-Burk; type: biochemical, Apis cerana; settings: 0-20 mM substrate, sodium phosphate pH 5.5, 37°C (assay 'as above'), partially purified enzyme
purified protein = substrate: O=[N+]([O-])c1ccc(O[C@H]2O[C@H](CO)[C@@H](O)[C@H](O)[C@H]2O)cc1; test: purified protein; settings: 0-25 mM substrate, sodium phosphate pH 5.5, 37°C (assay 'as above'), partially purified enzyme

B1: rAciHBGase II-(His)6 (Apis cerana indica) (protein)
chain: FRATITVPCLLLVASLVNSVDVNWYKNALVYQIYPRSFQDSNGDGIGDLNGITARIDHIADIGAQALWLSPIYKSPQVDFGYDISNFTDVDPDYGTLADFDRLVRRAKTLGLKVILDFVPNHSSHEHPWFKKSVQRIKPYDEYYVWRDARIVNGTRQPPNNWLSVFWGSAWEWNDVRQQYYLHQFAAGQPDLNYRSAALDQEMKNVLTFWMDRGVDGFRIDAINHMFEDKRLLDEPSANRTDLSKDDYESLVHVYTRDQNETYDVSRSWRNLMDEHSNRTNSDPRMILTEAYTEFNLTVKYYKSGSTVPFNFMFITDLNNQSTASDFKQLIDRWVGNVPNGSVTNWVSGNHDNHRVASRFGRQRADEILMLTLTLPGIGVVYNGDEIGMEDRPFTYAETVDPAGCNAGPAKYYLKSRDPERTPYQWDNSTSAGFSDRNKTWLPVNDNSRSLNLAAQKKEYYSHYVAFKSMSYLKKQPVIANGSLEVDVIDGKVLSVKRKLGNDTVIVMVNFSKNPVTINMSTLHPPADLVVYANNVIGSGLSHGNWIYPTSMTIPGSNSAIFTNYKLYWRYWQGVDGL
notes: full-length cDNA (1,740 bp, 579 residues) in pPICZalphaA (EcoRI/KpnI), secreted from Pichia pastoris GS115, C-terminal His6 kept, partially purified by HisTrap, ~73 kDa
Km [1]: 15.3 ± 0.87 mM | kcat [1]: 845.0 ± 0.00 s⁻¹ | Km (purified protein): 4.20 ± 0.18 mM | kcat (purified protein): 1.89 ± 0.11 s⁻¹
